Two molecules from US20180236024A1 (STC UNM, published 2018) can be followed below.

One assay addresses T1, NLRP3 (UniProt Q96P20 1-1036).
T1 construct: also called Flag-NLRP3; endogenous NLRP3
Kind of assay: co-IP of GFP-TRIM20 variants with NLRP3, HEK293 cells.

A further assay deals with T2, radiolabeled Myc-TRIM20 (human, UniProt O15553 1-781, [35S] L-methionine label).
T2 construct: In vitro translated for GST pull-down; the peptide array of TRIM20 peptides is also written under this molecule; not shown: Myc tag
T2 sequence: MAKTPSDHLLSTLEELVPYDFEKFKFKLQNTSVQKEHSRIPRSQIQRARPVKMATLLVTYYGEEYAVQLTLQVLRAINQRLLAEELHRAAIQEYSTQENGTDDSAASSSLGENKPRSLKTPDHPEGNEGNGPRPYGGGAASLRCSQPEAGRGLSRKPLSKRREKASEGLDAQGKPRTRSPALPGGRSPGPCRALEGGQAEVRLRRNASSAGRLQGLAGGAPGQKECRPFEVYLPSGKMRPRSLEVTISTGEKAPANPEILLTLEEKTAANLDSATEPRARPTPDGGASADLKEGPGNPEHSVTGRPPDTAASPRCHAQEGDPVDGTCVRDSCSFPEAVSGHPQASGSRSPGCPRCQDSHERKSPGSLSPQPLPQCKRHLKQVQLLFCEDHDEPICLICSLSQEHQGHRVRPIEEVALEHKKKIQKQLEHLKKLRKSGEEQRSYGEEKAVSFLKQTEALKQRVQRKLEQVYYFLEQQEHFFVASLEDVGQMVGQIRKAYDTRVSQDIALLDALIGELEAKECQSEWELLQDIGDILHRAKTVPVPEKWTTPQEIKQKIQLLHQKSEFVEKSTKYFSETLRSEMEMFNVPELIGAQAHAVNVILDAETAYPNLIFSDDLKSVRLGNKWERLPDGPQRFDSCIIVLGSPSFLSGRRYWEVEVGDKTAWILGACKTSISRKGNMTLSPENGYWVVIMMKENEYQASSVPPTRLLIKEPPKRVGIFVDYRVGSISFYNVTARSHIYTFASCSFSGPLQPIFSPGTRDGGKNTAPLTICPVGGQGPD
Kind of assay: GST pull-down of radiolabeled Myc-TRIM20.

T1 sequence (Q96P20 whole entry): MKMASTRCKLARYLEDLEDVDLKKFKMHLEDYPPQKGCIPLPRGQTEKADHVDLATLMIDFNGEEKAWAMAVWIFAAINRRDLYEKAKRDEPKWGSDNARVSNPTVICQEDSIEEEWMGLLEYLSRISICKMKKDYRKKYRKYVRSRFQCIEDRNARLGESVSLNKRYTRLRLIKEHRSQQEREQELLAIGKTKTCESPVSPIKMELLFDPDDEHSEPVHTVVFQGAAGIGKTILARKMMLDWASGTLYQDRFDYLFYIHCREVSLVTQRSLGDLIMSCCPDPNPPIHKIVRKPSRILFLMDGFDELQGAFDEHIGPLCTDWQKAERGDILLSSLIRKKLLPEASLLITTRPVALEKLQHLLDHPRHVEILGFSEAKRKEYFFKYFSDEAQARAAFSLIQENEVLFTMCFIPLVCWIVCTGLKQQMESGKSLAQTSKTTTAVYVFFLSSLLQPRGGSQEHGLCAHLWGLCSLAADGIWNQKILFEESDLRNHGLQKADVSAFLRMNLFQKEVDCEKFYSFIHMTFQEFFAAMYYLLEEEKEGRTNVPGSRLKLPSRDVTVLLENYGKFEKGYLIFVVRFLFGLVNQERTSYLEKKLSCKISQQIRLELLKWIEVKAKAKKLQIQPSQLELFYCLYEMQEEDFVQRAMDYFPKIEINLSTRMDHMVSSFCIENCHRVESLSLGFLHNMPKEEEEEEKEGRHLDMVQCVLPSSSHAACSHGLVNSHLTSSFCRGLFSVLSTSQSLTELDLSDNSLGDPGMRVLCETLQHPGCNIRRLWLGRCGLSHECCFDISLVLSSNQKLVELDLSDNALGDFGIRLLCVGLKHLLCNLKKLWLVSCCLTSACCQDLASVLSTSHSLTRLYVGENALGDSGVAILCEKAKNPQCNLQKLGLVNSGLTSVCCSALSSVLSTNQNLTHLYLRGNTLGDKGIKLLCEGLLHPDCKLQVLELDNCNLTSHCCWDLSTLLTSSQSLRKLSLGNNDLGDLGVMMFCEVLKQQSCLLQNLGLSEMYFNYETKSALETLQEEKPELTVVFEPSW

B1: GFP-TRIM20 (full-length human TRIM20) (other)
chain: T2 sequence
notes: also called T20; wild type TRIM20; not shown: GFP tag
Turning to B1, in the assay with NLRP3, the binding result was “binds”.

B2: GST-GABARAP (other)
chain: MKFVYKEEHPFEKRRSEGEKIRKKYPDRVPVIVEKAPKARIGDLDKKKYLVPSDLTVGQFYFLIRKRIHLRAEDALFFFVNNVIPPTSATMGQLYQEHHEEDFFLYIAYSDESVYGL
notes: GST fusion made in E. coli; not shown: GST tag
Take B2: in the assay with radiolabeled Myc-TRIM20, the binding result is reported as “binds”.
